Measured values as given in patent US12383631 (BRIGHT PEAK THERAPEUTICS, dated 2025).
Changes are numbered by the printed parent chain. Names and notes keep the numbering of the source. Values joined by “and” are separate entries in the source; they are usually repeats but may differ in a detail not shown here. Equal values may be shown once.

T1: human IL-18BP-His (human, UniProt O95998 31-194, limits assumed)
T1 construct: also called His-tagged human IL-18BP; not shown: His tag
T1 sequence (looked up): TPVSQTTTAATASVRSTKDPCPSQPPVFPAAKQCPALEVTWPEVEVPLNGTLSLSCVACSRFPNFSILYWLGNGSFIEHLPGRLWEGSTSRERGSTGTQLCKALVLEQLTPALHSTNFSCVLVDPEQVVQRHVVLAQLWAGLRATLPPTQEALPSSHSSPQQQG

T2: IL-18 receptor (IL-18Rα/IL-18Rβ) on cells (HEK-Blue IL18R reporter cells, NK-92, KG-1) (human, UniProt Q13478 19-541; O95256 20-599)
T2 sequence (looked up) 1: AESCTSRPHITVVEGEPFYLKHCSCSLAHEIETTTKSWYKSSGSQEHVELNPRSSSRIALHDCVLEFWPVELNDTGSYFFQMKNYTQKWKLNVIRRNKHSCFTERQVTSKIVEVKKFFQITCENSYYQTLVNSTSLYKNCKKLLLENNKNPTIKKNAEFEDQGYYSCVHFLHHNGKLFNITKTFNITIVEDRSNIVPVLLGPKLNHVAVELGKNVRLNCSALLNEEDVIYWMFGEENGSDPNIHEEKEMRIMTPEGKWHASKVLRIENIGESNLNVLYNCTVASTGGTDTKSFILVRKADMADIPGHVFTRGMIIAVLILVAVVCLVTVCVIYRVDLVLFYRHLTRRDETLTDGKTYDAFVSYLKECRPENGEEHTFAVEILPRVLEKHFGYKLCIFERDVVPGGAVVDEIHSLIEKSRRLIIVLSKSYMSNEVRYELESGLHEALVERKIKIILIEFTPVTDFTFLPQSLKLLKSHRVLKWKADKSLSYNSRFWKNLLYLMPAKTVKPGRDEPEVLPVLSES
T2 sequence (looked up) 2: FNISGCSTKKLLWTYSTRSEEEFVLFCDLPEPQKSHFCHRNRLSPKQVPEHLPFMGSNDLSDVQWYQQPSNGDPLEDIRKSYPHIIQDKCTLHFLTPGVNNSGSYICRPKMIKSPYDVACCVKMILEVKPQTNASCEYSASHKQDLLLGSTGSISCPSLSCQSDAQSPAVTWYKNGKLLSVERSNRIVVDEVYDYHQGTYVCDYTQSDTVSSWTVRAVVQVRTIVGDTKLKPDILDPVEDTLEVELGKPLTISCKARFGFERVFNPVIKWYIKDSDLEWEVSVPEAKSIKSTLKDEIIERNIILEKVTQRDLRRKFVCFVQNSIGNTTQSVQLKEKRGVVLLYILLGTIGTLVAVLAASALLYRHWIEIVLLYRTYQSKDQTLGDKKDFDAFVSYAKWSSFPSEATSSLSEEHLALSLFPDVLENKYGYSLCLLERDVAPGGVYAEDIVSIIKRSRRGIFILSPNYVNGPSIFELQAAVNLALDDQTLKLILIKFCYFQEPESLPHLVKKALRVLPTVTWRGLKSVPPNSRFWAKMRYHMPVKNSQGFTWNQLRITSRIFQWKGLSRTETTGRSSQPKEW

B1: IL-18 polypeptide of SEQ ID NO: 60 (E6K, C38Q, K53A) (ligand)
chain: YFGKLKSKLSVIRNLNDQVLFIDQGNRPLFEDMTDSDQRDNAPRTIFIISMYADSQPRGMAVTISVKCEKISTLSCENKIISFKEMNPPDNIKDTKSDIIFFQRSVPGHDNKMQFESSSYEGYFLACEKERDLFKLILKKEDELGDRSIMFTVQNED
B2: IL-18 polypeptide of SEQ ID NO: 59 (E6K, C38A, K53A) (ligand)
chain: B1 chain with Q38A
B3: IL-18 polypeptide of SEQ ID NO: 50 (E06K, K53A, T63A) (ligand)
chain: B1 chain with Q38C, T63A
B4: IL-18 polypeptide C168 (ligand)
chain: B1 chain with K6E, V11I, Q38A, A53K, C76A, S105K, C127A
notes: also called V11I, C38A, C76A, S105K, C127A
B5: IL-18 polypeptide of SEQ ID NO: 54 (E06K, K53A, C38S, C68S, C76S, C127S, K70C) (ligand)
chain: B1 chain with Q38S, C68S, K70C, C76S, C127S
B6: IL-18 polypeptide of SEQ ID NO: 57 (E6K, C38S, K53A) (ligand)
chain: B1 chain with Q38S
B7: Composition E (LZM-009 conjugated to IL-18 polypeptide of SEQ ID NO: 60) (other)
VH: QVQLVQSGAEVKKPGASVKVSCKASGYTFTSYYMYWVRQAPGQGLEWMGGVNPSNGGTNFNEKFKSRVTITADKSTSTAYMELSSLRSEDTAVYYCARRDYRYDMGFDYWGQGTTVTVSS
VL: EIVLTQSPATLSLSPGERATISCRASKGVSTSGYSYLHWYQQKPGQAPRLLIYLASYLESGVPARFSGSGSGTDFTLTISSLEPEDFATYYCQHSRELPLTFGTGTKVEIK
chain: B1 chain
modifications: chemical linker to the antibody; chemical linker to IL-18

Target: T1, human IL-18BP-His
Assay: AlphaLISA of free IL-18BP
Description: The plate is incubated further for 1 hr at room temperature. Under subdued light, 12.5 µL of 2× streptavidin (SA) donor beads are pipetted into each well, and the wells are incubated with shaking for an additional 30 min at room temperature. The AlphaLisa signal is then measured on an Enspire plate reader with 680 and 615 nm as excitation and emission wavelengths, respectively. The dissociation constant (K_D) is calculated based on a variable slope, four parameter analysis using GraphPad PRISM software.

Row | Kd | Binder
1 | 24.8 nM | B1
2 | 36 nM | B2
3 | 340 nM | B3
4 | 0.05 nM | B4
5 | 446 nM | B5
6 | 50.2 nM | B6

Target: T2, IL-18 receptor (IL-18Rα/IL-18Rβ) on …
Assay: cell-based or functional assay

Row | EC50, IFNγ secretion, NK92 cells | Binder
7 | 0.056 nM | B7
8 | 0.008 nM | B1

Target: T2, IL-18 receptor (IL-18Rα/IL-18Rβ) on …
Assay: cell-based or functional assay
Remark: another data set of the same source

Row | EC50, IFNγ stimulation, NK92 cells | Binder
9 | 0.006 nM | B1
10 | 0.015 nM | B2
11 | 0.0268 nM | B3
12 | 0.098 nM | B4
13 | 0.962 nM | B5
14 | 0.045 nM | B6

Target: T2, IL-18 receptor (IL-18Rα/IL-18Rβ) on …
Assay: cell-based or functional assay
Remark: another data set of the same source

Row | EC50, HEK-Blue IL18R reporter cells | Binder
15 | 0.000203 nM | B1
16 | 0.000268 nM | B2
17 | 0.00177 nM | B3
18 | 0.00773 nM | B4
19 | 0.00912 nM | B5
20 | 0.00086 nM and 0.00053 nM | B6
